Measurements as given in patent US20160138042A1 (COMMONWEALTH SCIENTIFIC AND INDUSTRIAL RESEARCH ORGANISATION, published 2016).

Target: the molecule itself
Assay: directed yeast two-hybrid, self-association (same fragment as bait and prey)

B1: Sr33 CC1-125 (truncated portion of the CC domain of Sr33) (other)
chain: MDIVTGAIAKLIPKLGELLVGEYKLHKGVKKNIEDLLKELKTMNAALIKIGEVPPDQLDSQDKLWADEVRELSYVIEDAVDKFLVRVHGVEPDDNTNGFKGLMKRTTKLLKKVVDKHGIAHAIKD
notes: Expressed as both bait and prey in yeast two-hybrid; The fused GAL4 domains are not included; also called Sr33 CC125
  binding result: no binding

B2: Sr33 CC1-225 (CC-NB domain of Sr33) (other)
chain: MDIVTGAIAKLIPKLGELLVGEYKLHKGVKKNIEDLLKELKTMNAALIKIGEVPPDQLDSQDKLWADEVRELSYVIEDAVDKFLVRVHGVEPDDNTNGFKGLMKRTTKLLKKVVDKHGIAHAIKDIKKELQEVAARRDRNKFDGIASIPTEAIDPRLRALYIEAAELVGIYGKRDQELMSLLSLEGDDASTKKLKKVSIVGFGGLGKTTLAKAVYEKIKGDFDCH
notes: Expressed as both bait and prey in yeast two-hybrid; The fused GAL4 domains are not included; also called Sr33 CC225
  binding result: no binding
